The source of these data is article PMC2905227 (Journal of the American Chemical Society, 2010).

What is called Kd is the equilibrium constant for the complex coming apart. Read a high Kd as lower affinity.

The test addresses T1, wild-type E. coli ribonucleotide reductase α2 subunit (E. coli, UniProt P00452 1-761).
T1 sequence (looked up): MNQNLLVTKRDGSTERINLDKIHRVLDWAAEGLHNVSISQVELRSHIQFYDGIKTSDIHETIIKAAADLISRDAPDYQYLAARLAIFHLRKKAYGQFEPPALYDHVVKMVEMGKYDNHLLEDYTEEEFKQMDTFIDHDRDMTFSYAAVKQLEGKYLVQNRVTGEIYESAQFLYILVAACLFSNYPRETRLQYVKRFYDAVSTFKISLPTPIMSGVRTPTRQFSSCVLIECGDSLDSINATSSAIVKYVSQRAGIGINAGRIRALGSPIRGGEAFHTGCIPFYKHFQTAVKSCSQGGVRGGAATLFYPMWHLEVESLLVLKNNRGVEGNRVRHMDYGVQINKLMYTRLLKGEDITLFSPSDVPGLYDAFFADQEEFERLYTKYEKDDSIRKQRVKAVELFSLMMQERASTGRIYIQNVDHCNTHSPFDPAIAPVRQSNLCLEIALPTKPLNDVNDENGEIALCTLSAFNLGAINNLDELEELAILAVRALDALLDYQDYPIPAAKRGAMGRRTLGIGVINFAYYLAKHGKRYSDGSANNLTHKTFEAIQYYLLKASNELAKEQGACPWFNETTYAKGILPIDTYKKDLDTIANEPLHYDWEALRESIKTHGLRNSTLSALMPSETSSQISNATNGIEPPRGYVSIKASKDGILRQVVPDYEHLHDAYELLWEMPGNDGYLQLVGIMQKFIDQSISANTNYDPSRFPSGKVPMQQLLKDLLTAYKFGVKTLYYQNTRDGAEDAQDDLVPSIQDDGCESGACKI
In words: competitive inhibition of enzyme activity.

B1: [NO2Y122]-β2 (enzyme)
chain: AYTTFSQTKNDQLKEPMFFGQPVNVARYDQQKYDIFEKLIEKQLSFFWRPEEVDVSRDRIDYQALPEHEKHIFISNLKYQTLLDSIQGRSPNVALLPLISIPELETWVETWAFSETIHSRSYTHIIRNIVNDPSVVFDDIVTNEQIQKRAEGISSYYDELIEMTSYWHLLGEGTHTVNGKTVTVSLRELKKKLYLCLMSVNALEAIRFYVSFACSFAFAERELMEGNAKIIRLIARDEALHLTGTQHMLNLLRSGADDPEMAEIAEECKQECYDLFVQAAQQEKDWADYLFRDGSMIGLNKDILCQYVEYITNIRMQAVGLDLPFQTRSNPIPWINTWLVSDNVQVAPQEVEVSSYLVGQIDSEVDTDDLSNFQL
modifications: 3-nitrotyrosine (NO2Y) in place of Y122; diferric cluster (met form, 2.9 Fe/β2)
With B1, the Kd turned out to be 400 ± 60 nM.
